Source: patent publication US20210253718A1 (MODMAB THERAPEUTICS, published 2021)
Positions count from the first letter of the chain named.

Key:
[1] = target: T1, FZD7 cysteine-rich domain (CRD), MYC-tagged and GPI-anchored on CHO cells (human, UniProt O75084 45-169); assay: flow cytometry on CHO-GPI cells over-expressing the Frizzled CRD;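 also: binding of recombinant anti-Frizzled Fabs to the cells, read as fold mean fluorescence intensity above secondary-antibody-only background and normalized to control CHO-GPI cells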
From the text: (§1) Specificity profiling of the Frizzled profiler Fabs by flow cytometry in CHO-GPI cells over-expressing CRDs of FZD1, FZD2, FZD3, FZD4, FZD5, FZD6, FZD7, FZD8, FZD9 or FZD10. Numerical values indicate a fold-increase in mean fluorescence intensity of the reacting Fab over the background (secondary antibody alone) normalized to the control (C, CHO-GPI).
(§2) To characterize the binding specificity of these Fabs on cells, a panel of 10 CHO cell lines was generated, each expressing the CRD domain of a different myc-tagged Frizzled family member anchored at the plasma membrane through a GPI anchor (CHO-myc-FZDGPI).

[2] = target: T2, FZD2 cysteine-rich domain (CRD), MYC-tagged and GPI-anchored on CHO cells (human, UniProt Q14332 35-161); assay: as above
From the text: as §1, §2

[3] = target: T3, FZD9 cysteine-rich domain (CRD), MYC-tagged and GPI-anchored on CHO cells (human, UniProt O00144 35-161, GPI anchor); assay: as above
T3 construct: also called FZD9 CRD; CHO-myc-FZDGPI; not shown: MYC tag and GPI anchor signal
T3 sequence: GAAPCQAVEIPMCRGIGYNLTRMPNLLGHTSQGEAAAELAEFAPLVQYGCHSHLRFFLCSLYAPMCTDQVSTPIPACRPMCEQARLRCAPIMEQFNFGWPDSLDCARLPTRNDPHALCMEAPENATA

[4] = target: T4, FZD3 cysteine-rich domain (CRD), MYC-tagged and GPI-anchored on CHO cells (human, UniProt Q9NPG1 24-150, GPI anchor); assay: as above
T4 construct: domain: cysteine-rich domain (CRD); also called FZD3 CRD; CHO-myc-FZDGPI; not shown: MYC tag and GPI anchor signal
T4 sequence (looked up): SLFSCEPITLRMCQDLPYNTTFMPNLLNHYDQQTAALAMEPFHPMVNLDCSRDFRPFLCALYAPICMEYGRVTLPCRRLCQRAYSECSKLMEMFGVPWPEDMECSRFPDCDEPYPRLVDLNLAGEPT

[5] = target: T5, FZD5 cysteine-rich domain (CRD), MYC-tagged and GPI-anchored on CHO cells (human, UniProt Q13467 29-156, GPI anchor); assay: as above
T5 construct: also called FZD5 CRD; CHO-myc-FZDGPI; not shown: MYC tag and GPI anchor signal
T5 sequence: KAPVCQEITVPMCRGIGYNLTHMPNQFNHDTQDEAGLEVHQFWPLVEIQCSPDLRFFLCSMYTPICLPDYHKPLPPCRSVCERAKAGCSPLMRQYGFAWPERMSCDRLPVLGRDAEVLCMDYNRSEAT

[6] = target: T6, FZD6 cysteine-rich domain (CRD), MYC-tagged and GPI-anchored on CHO cells (human, UniProt O60353 20-146, GPI anchor); assay: as above
T6 construct: also called FZD6 CRD; CHO-myc-FZDGPI; not shown: MYC tag and GPI anchor signal
T6 sequence: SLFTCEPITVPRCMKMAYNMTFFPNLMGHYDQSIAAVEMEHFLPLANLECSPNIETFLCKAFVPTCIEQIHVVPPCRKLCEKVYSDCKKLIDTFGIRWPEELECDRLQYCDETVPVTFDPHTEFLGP

[7] = target: T7, FZD1 cysteine-rich domain (CRD), MYC-tagged and GPI-anchored on CHO cells (human); assay: as above
From the text: as §1, §2

[8] = target: T8, FZD4 cysteine-rich domain (CRD), MYC-tagged and GPI-anchored on CHO cells (human, UniProt Q9ULV1 42-167, GPI anchor); assay: as above
T8 construct: also called FZD4 CRD; CHO-myc-FZDGPI; not shown: MYC tag and GPI anchor signal
T8 sequence: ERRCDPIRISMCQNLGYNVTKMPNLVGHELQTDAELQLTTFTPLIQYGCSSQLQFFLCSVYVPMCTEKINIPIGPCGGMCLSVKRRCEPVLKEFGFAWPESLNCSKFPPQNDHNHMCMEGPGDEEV

[9] = target: T9, FZD10 cysteine-rich domain (CRD), MYC-tagged and GPI-anchored on CHO cells (human, UniProt Q9ULW2 30-156, GPI anchor); assay: as above
T9 construct: also called FZD10 CRD; CHO-myc-FZDGPI; not shown: MYC tag and GPI anchor signal
T9 sequence: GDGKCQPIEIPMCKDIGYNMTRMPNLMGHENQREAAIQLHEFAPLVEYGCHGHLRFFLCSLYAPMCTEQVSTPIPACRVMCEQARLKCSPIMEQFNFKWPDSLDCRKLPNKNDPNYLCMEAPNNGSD

[10] = target: T10, FZD8 cysteine-rich domain (CRD), MYC-tagged and GPI-anchored on CHO cells (human, UniProt Q498S8 31-155 (rat entry), GPI anchor); assay: as above
T10 construct: also called FZD8 CRD; CHO-myc-FZDGPI; not shown: MYC tag and GPI anchor signal
T10 sequence: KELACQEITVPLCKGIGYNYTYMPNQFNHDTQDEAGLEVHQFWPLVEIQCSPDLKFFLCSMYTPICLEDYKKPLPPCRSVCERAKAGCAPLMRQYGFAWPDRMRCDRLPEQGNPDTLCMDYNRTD

[11] = target: T1, FZD7 cysteine-rich domain (CRD), …; assay: flow cytometry, CHO-CRD cells;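 also: flow cytometry of Fab binding to CHO cells overexpressing a Frizzled CRD, with binding defined as median fluorescence over twice that of CHO cells lacking any Frizzled CRD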
Method: (§3) Binding was measured via flow cytometry analysis of CHO cells overexpressing CRD of FZD1, FZD2, FZD3, FZD4, FZD5, FZD6, FZD7, FZD8, FZD9 or FZD10. Median fluorescence values are shown.

[12] = target: T2, FZD2 cysteine-rich domain (CRD), …; assay: flow cytometry, CHO-CRD cells;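 also: flow cytometry of Fab binding to CHO cells overexpressing a Frizzled CRD, with binding defined as median fluorescence over twice that of CHO cells lacking any Frizzled CRD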
Method: as §3

[13] = target: T3, FZD9 cysteine-rich domain (CRD), …; assay: flow cytometry, CHO-CRD cells;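 also: flow cytometry of Fab binding to CHO cells overexpressing a Frizzled CRD, with binding defined as median fluorescence over twice that of CHO cells lacking any Frizzled CRD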
Method: as §3

[14] = target: T4, FZD3 cysteine-rich domain (CRD), …; assay: flow cytometry, CHO-CRD cells;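 also: flow cytometry of Fab binding to CHO cells overexpressing a Frizzled CRD, with binding defined as median fluorescence over twice that of CHO cells lacking any Frizzled CRD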
Method: as §3

[15] = target: T5, FZD5 cysteine-rich domain (CRD), …; assay: flow cytometry, CHO-CRD cells
Method: as §3

[16] = target: T6, FZD6 cysteine-rich domain (CRD), …; assay: flow cytometry, CHO-CRD cells
Method: as §3

[17] = target: T7, FZD1 cysteine-rich domain (CRD), …; assay: flow cytometry, CHO-CRD cells
Method: as §3

[18] = target: T8, FZD4 cysteine-rich domain (CRD), …; assay: flow cytometry, CHO-CRD cells
Method: as §3

[19] = target: T9, FZD10 cysteine-rich domain (CRD), …; assay: flow cytometry, CHO-CRD cells
Method: as §3

[20] = target: T10, FZD8 cysteine-rich domain (CRD), …; assay: flow cytometry, CHO-CRD cells
Method: as §3

B1: Fab-2919 (Fab, V domains shown)
VH: EVQLVESGGGLVQPGGSLRLSCAASGFNISYSYIHWVRQAPGKGLEWVASIYSSSGSTSYADSVKGRFTISADTSKNTAYLQMNSLRAEDTAVYYCARGAIDYWGQGTLVTVSS
VL: DIQMTQSPSSLSASVGDRVTITCRASQSVSSAVAWYQQKPGKAPKLLIYSASSLYSGVPSRFSGSRSGTDFTLTISSLQPEDFATYYCQQWYSSGHVLITFGQGTKVEIK
notes: Fab
B1: no binding (tested: 200 nM) [1]; no binding (tested: 200 nM) [2]; no binding (tested: 200 nM) [3]. The binding result [4] was “no binding (tested: 200 nM)”, the “fold-increase in mean fluorescence intensity over background (secondary antibody alone), normalized to control CHO-GPI” value (shortened to “fold-increase … normalized to control CHO-GPI”) [5] was 19.2 fold and the binding result [6] was “no binding (tested: 200 nM)”. B1: no binding (tested: 200 nM) [7]; no binding (tested: 200 nM) [8]; no binding (tested: 200 nM) [9]. For the same binder, the “fold-increase … normalized to control CHO-GPI” value [10] was 14.4 fold, the median fluorescence [11] was 2.41 and the median fluorescence [12] was 4.26. It also gave a median fluorescence [13] of 2.79, a median fluorescence [14] of 3.96 and a median fluorescence [15] of 43.7. For the same binder, the median fluorescence [16] was 2.64, the median fluorescence [17] was 3.52 and the median fluorescence [18] was 3.79. For the same binder, the median fluorescence [19] was 2.48 and the median fluorescence [20] was 20.5.

B2: Fab-2921 (Fab, V domains shown)
VH: B1 VH with S32Y, S53P, I101M
VL: DIQMTQSPSSLSASVGDRVTITCRASQSVSSAVAWYQQKPGKAPKLLIYSASSLYSGVPSRFSGSRSGTDFTLTISSLQPEDFATYYCQQWYAGSLITFGQGTKVEIK
notes: Fab
B2: no binding (tested: 200 nM) [1]; no binding (tested: 200 nM) [2]; no binding (tested: 200 nM) [3]. For the same binder, the binding result [4] was “no binding (tested: 200 nM)”, the “fold-increase … normalized to control CHO-GPI” value [5] was 14 fold and the binding result [6] was “no binding (tested: 200 nM)”. B2: no binding (tested: 200 nM) [7]; no binding (tested: 200 nM) [8]; no binding (tested: 200 nM) [9]. The “fold-increase … normalized to control CHO-GPI” value [10] was 6.8 fold, the median fluorescence [11] was 4.37 and the median fluorescence [12] was 4.37. The median fluorescence [13] was 2.94, the median fluorescence [14] was 3.59 and the median fluorescence [15] was 29.4. It also gave a median fluorescence [16] of 2.67, a median fluorescence [17] of 4.53 and a median fluorescence [18] of 4.1. The median fluorescence [19] was 2.48 and the median fluorescence [20] was 6.98.
